Here are results for 41 sequences from the supplement of paper PMC7877785.

± gives the uncertainty stated by the source.

The series in a line: self-splicing fitness, log relative to wild type (ln ratio); higher = more splicing; Tetrahymena group I intron in knt gene, E. coli kanamycin selection, DiMSum; sequences stand for … in CUCUCU…GGAGGGAAAAGUUAUCAGGCAUGCACCUGGUAGCUAGUCUUUAAACCAAUAGAUUGCAUCGGUUUAAAAGGCAAGACCGUCAAAUUGCGGGAAAGGGGUCAACAGCCGUUCAGUACCAAGUCUCAGGGGAAACUUUGAGAUGGCCUUGCAAAGGGUAUGGUAAUAAGCUGACGGACAUGGUCCUAACCACGCAGCCAAGUCCUAAGUCAACAGAUCUUCUGUUGAUAUGGAUGCAGUUCACAGACUAAAUGUCGGUCGGGGAAGAUGUAUUCUUCUCAUAAGAUAUAGUCGGACCUCUCCUUAAUGGGAGCUAGCGGAUGAAGUGAUGCAACACUGGAGCCGCUGGGAACUAAUUUGUAUGCGAAAGUAUAUUGAUUAGUUUUGGAGUACUCGUGGUCG
In outline:
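The eight P1ex-region nucleotides of an intron in the knt kanamycin-resistance gene on pET-22b(+) were all randomised and the library put into E. coli BL21(DE3). Six replicate transformations were grown overnight at 37°C or 30°C on LB agar with or without 25 μg/mL kanamycin, together with 100 μg/mL carbenicillin, 50 μM IPTG and 0.2% rhamnose. Colonies were pooled and amplicon-sequenced on an Illumina HiSeq 2500. Fitness from DiMSum is the error-weighted combination of wild-type-normalised replicate fold changes, kanamycin over none.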

For UCUCAGCAAUAUUACGGACG, the “self-splicing fitness (ln)” value by setting is: (30 °C) -1.84 ± 0.14; (37 °C) -0.508 ± 0.13.
For the sequence UCUCAGCAAUAUUACGGUUA, the “self-splicing fitness (ln)” value (30 °C) is -0.801 ± 0.083 and the “self-splicing fitness (ln)” value (37 °C) was -0.239 ± 0.091.
The matching figures for UCUCAGCAAUAUUACGUACG: -2.45 ± 0.14 and -1.26 ± 0.13.
For UCUCAGCAAUAUUACGUUAA the same measures were -2.79 ± 0.19 and -2.26 ± 0.17.
The matching figures for UCUCAGCAAUAUUACGUUAU: -2.98 ± 0.095 and -2.8 ± 0.13.
Turning to UCUCAGCAAUAUUACGUUGC, the “self-splicing fitness (ln)” value (37 °C) was -2.73 ± 0.23.
Take UCUGAGCAAUAUUACGAAAC: under “30 °C”, the “self-splicing fitness (ln)” value was -2.45 ± 0.31.
Regarding UCUGAGCAAUAUUACGACGU, the “self-splicing fitness (ln)” value is, setting by setting: (30 °C) -0.648 ± 0.13; (37 °C) 0.778 ± 0.13.
As for UCUGAGCAAUAUUACGAGCA, under “37 °C”, the “self-splicing fitness (ln)” value is -2.23 ± 0.36.
For the sequence UCUGAGCAAUAUUACGAGGG, the “self-splicing fitness (ln)” value (30 °C) is -4.14 ± 0.27 and the “self-splicing fitness (ln)” value (37 °C) was -2.5 ± 0.3.
With UCUGAGCAAUAUUACGAGUC, the “self-splicing fitness (ln)” value (30 °C) was -2.7 ± 0.41.
On to UCUGAGCAAUAUUACGCACA, for which, for the setting “37 °C”, the “self-splicing fitness (ln)” value is -1.23 ± 0.49.
As for UCUGAGCAAUAUUACGCAGU, the “self-splicing fitness (ln)” value was -2.4 ± 0.35 (30 °C) and -1.08 ± 0.21 (37 °C).
The matching figures for UCUGAGCAAUAUUACGCCGG: -1.96 ± 0.22 and -0.975 ± 0.24.
On to UCUGAGCAAUAUUACGCGCU, for which the “self-splicing fitness (ln)” value by setting is: (30 °C) -2.53 ± 0.28; (37 °C) -1.59 ± 0.3.
The matching figures for UCUGAGCAAUAUUACGCGGU: -2.71 ± 0.28 and -2.5 ± 0.28.
For UCUGAGCAAUAUUACGCUAU the same measures were -3.8 ± 0.22 and -3.15 ± 0.28.
Take UCUGAGCAAUAUUACGGAGG: the “self-splicing fitness (ln)” value is -3.34 ± 0.32 (30 °C) and -1.79 ± 0.27 (37 °C).
The matching figures for UCUGAGCAAUAUUACGGCUC: -2.63 ± 0.22 and -2.14 ± 0.24.
The matching figures for UCUGAGCAAUAUUACGGUAU: -2.41 ± 0.18 and -2.5 ± 0.44.
UCUGAGCAAUAUUACGGUUA: the “self-splicing fitness (ln)” value is, setting by setting: (30 °C) -2.82 ± 0.18; (37 °C) -2.05 ± 0.14.
The matching figures for UCUGAGCAAUAUUACGGUUG: -3.75 ± 0.23 and -3.15 ± 0.3.
As for UCUGAGCAAUAUUACGUAAC, the “self-splicing fitness (ln)” value (30 °C) is -3.44 ± 0.33 and the “self-splicing fitness (ln)” value (37 °C) is -1.55 ± 0.2.
For the sequence UCUGAGCAAUAUUACGUAGC, under “37 °C”, the “self-splicing fitness (ln)” value is -2.04 ± 0.27.
UCUGAGCAAUAUUACGUAGG: the “self-splicing fitness (ln)” value is, setting by setting: (30 °C) -0.323 ± 0.087; (37 °C) -0.306 ± 0.13.
Consider UCUGAGCAAUAUUACGUGGC, for which the “self-splicing fitness (ln)” value was -3.1 ± 0.25 (30 °C) and -1.94 ± 0.23 (37 °C).
Turning to UCUGAGCAAUAUUACGUUGC, under “30 °C”, the “self-splicing fitness (ln)” value is -3.64 ± 0.28.
UCUGAGCAAUAUUACGUUUA: the “self-splicing fitness (ln)” value is, setting by setting: (30 °C) -2.83 ± 0.17; (37 °C) -2.65 ± 0.19.
The matching figures for UCUGAGCAAUAUUACGUUUC: -2.44 ± 0.22 and -0.767 ± 0.21.
In the case of UCUUAGCAAUAUUACGAAUA, the “self-splicing fitness (ln)” value is, setting by setting: (30 °C) -3.59 ± 0.47; (37 °C) -0.936 ± 0.17.
With UCUUAGCAAUAUUACGAAUU, the “self-splicing fitness (ln)” value (37 °C) was -2.06 ± 0.24.
With UCUUAGCAAUAUUACGAGAA, the “self-splicing fitness (ln)” value (30 °C) was -2.37 ± 0.47.
On to UCUUAGCAAUAUUACGAGUG, for which the “self-splicing fitness (ln)” value reads like this: (30 °C) -0.964 ± 0.065; (37 °C) -0.162 ± 0.097.
As to UCUUAGCAAUAUUACGAUUC, the “self-splicing fitness (ln)” value (30 °C) was -2.05 ± 0.44.
In the case of UCUUAGCAAUAUUACGCACA, the “self-splicing fitness (ln)” value reads like this: (30 °C) -1.04 ± 0.22; (37 °C) -0.879 ± 0.23.
For UCUUAGCAAUAUUACGCAGG the same measures were -3.45 ± 0.43 and -1.75 ± 0.38.
The matching figures for UCUUAGCAAUAUUACGCAUA: -2.4 ± 0.26 and -1.47 ± 0.22.
For UCUUAGCAAUAUUACGCGCA the same measures were -0.966 ± 0.29 and -1.53 ± 0.23.
Take UCUUAGCAAUAUUACGGAUU: the “self-splicing fitness (ln)” value is -2.71 ± 0.41 (30 °C) and -2.22 ± 0.21 (37 °C).
For UCUUAGCAAUAUUACGGUUG the same measures were -3.34 ± 0.32 and -2.18 ± 0.43.
For UCUUAGCAAUAUUACGUAAG the same measures were -0.27 ± 0.09 and -0.314 ± 0.13.
